Laboratory results as given in patent publication US20240075068A1 (GADETA B V, published 2024).

How the values were obtained:
[1] = molecular target: Endothelial protein C receptor (EPCR) peptide on (human); assay: TEG library γ-random/δ-random, 16 h with Luc-Tom HT-29 (cells that express the antigen), E:T 1:3; CD69/CD107a sort, NGS read ratio; Fig. 9; full-length, on cells; conditions: chains Vgamma:Vdelta
[2] = molecular target: T1, endothelial protein C receptor (EPCR) on HT-29 cells (UniProt Q9UNN8 18-238, limits assumed); assay: flow cytometry on HT-29 cells (wild-type, EPCR-enhanced, EPCR KO), streptavidin-A647 detection
T1 construct: whole, on cells; The description says 'preferably human EPCR'; HT-29 is a human cell line; also called recognised target; target antigen
T1 sequence (looked up): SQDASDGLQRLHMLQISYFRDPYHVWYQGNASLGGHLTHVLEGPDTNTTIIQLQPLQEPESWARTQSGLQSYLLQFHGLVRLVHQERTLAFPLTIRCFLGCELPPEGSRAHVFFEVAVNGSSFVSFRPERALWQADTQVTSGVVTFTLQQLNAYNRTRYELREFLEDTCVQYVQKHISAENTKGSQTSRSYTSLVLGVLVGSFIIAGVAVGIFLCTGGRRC

[3] = molecular target: T1, endothelial protein C receptor (EPCR) …; assay: flow cytometry on HT-29 cells (wild-type, EPCR ectopic, EPCR KO), anti-His-APC detection

B1: E57 G7/D5 (protein)
chain 1: SSNLEGRTKSVIRQTGSSAEITCDLAEGSTGYIHWYLHQEGKAPQRLLYYDSYTSSVVLESGISPGKYDTYGSTRKNLRMILRNLIENDSGVYYCATWEAFYYKKLFGSGTTLVVT
chain 2: DQQVKQNSPSLSVQEGRISILNCDYTNSMFDYFLWYKKYPAEGPTFLISISSIKDKNEDGRFTVFLNKSAKHLSLHIVPSQPGDSAVYFCAASSPIKGYTGSDKLIFGKGTRVTVEP
Question: B1 was tested. Which enrichment of CD69+/CD107a+ over CD69-/CD107a- reads [1] did it give?
Answer: Its enrichment of CD69+/CD107a+ over CD69-/CD107a- reads is greater than 170%.

B2: sE57 G2/D1 soluble γδTCR (affinity decreased variant, without cysteine) (TCR, V domains shown)
V domain 1: SSNLEGRTKSVIRQTGSSAEITCDLAEGSTGYIHWYLHQEGKAPQRLLYYDSYTSSVVLESGISPGKYDTYGSTRKNLRMILRNLIENDSGVYYCATWDGYKKLFGSGTTLVVTD
V domain 2: DQQVKQNSPSLSVQEGRISILNCDYTNSMFDYFLWYKKYPAEGPTFLISISSIKDKNEDGRFTVFLNKSAKHLSLHIVPSQPGDSAVYFCAASSPIRGYTSGSDKLIFGKGTRVTVEP
modifications: biotinylated via Avi-tag (BirA co-transfection in the presence of biotin)
notes: also called G2/D1 variant
Question: Does B2 bind [2]?
Answer: Result: no binding (tested: 10 µg)

B3: soluble γδTCR-CD3 bispecific engager comprising the G2/D1 variant regions (TCR, V domains shown)
V domain 1: SSNLEGRTKSVIRQTGSSAEITCDLAEGSTGYIHWYLHQEGKAPQRLLYYDSYTSSVVLESGISPGKYDTYGSTRKNLRMILRNLIENDSGVYYCATWDGYKKLFGSGTTLVVTD
V domain 2: DQQVKQNSPSLSVQEGRISILNCDYTNSMFDYFLWYKKYPAEGPTFLISISSIKDKNEDGRFTVFLNKSAKHLSLHIVPSQPGDSAVYFCAASSPIRGYTSGSDKLIFGKGTRVTVEP
notes: This is a TCR-scFv fusion; also called G2/D1 γδTCR-CD3 bispecific engager; G2D1 γδTCR-CD3 bispecific engager
Question: Does B3 bind [3]?
Answer: Result: no binding (tested: 5 µg)
